{
  "source": "patent US9284369B2",
  "about": "“Inhibition of angiogenesis” (Genentech, Inc., priority 2007, dated 2016)",
  "molecules": {"B1": {"name": "G-CSF: recombinant granulocyte-CSF: mouse or human (R&D Systems) or human Neupogen (Amgen) (protein, chains of the INN, looked up)", "chain": "MTPLGPASSLPQSFLLKCLEQVRKIQGDGAALQEKLCATYKLCHPEELVLLGHSLGIPWAPLSSCPSQALQLAGCLSQLHSGLFLYQGLLQALEGISPELGPTLDTLQLDVADFATTIWQQMEELGMAPALQPTQGAMPAFASAFQRRAGGVLVASHLQSFLEVSYRVLRHLAQP"}},
  "key": {"[1]": {"test_system": "CD11b+Gr1+ cells", "test": "G-CSF-induced mobilization of CD11b+Gr1+ cells", "assay_type": "in vivo, mouse", "conditions": "sub-maximal dose 2 μg, within six hours", "description": "To determine the role of Bv8 in G-CSF-induced mobilization of CD11b+Gr1+ cells, Balb/c nude mice received two doses of anti-Bv8 antibodies (5+5 mg/kg), 12 hours apart, followed by mouse G-CSF (R&D Systems; 2 μg/mouse) fours hours after the second dose of Mab. As a positive control, we used a rat anti-mouse G-CSF Mab (Mab414, R&D Systems; 10 μg/mouse) given at the same interval as anti-Bv8, followed by mouse G-CSF. After six hours, mice were bled and the frequency of CD11b+Gr1+ cells was determined as described. To determine the role of G-CSF in regulating Bv8 expression in the absence of tumor, Balb/c nude mice were given daily i.p. injections of control rat IgG (Genentech) or rat anti-G-CSF Mab (Mab414, R&D Systems, 10 μg/mouse) for eight consecutive days. Animals were euthanized and total proteins were extracted from BMMNCs. Bv8 levels were measured by ELISA, as described. To assess the significance of G-CSF in regulating Bv8 expression in tumors, Balb/c nude mice were pretreated with 10 μg of rat anti-G-CSF Mab or rat IgG as above described, followed after 12 hours by implantation with HM7 cells (5×10^6 per mouse). Controls were implanted with empty Matrigel™. Animals then received daily administration of antibodies for two days. Forty-eight hours after Matrigel™ or tumor implantation, mice were euthanized and Bv8 levels in BMMNCs were measured as described above."}, "[2]": {"test_system": "Bv8 expression", "test": "Regulation of Bv8 gene expression in cultured human blood and bone marrow cells (Taqman)", "assay_type": "cell-based", "description": "RNA was prepared using the RNeasy™ Mini Kit (Qiagen). 50 ng total RNA per reaction was used for the real time PCR (Taqman) analysis. For human Bv8, testis RNA (BD Biosciences) served as control. Reactions were run on 9600 Emulation mode of 7500 Real time PCR system (Applied Biosystems, Foster City, Calif.) and the absolute quantification with standard curve was used with Sequence Detection System (SDS) software. The expression level of each gene was further quantified relative to the housekeeping gene RPL19 in the same sample. The sequences of Taqman primers are as follows: Human Bv8 forward: ATG GCA CGG AAG CTA GGA (SEQ ID NO: 10), reverse: GCAGAGCTGAAGTCCTCTTGA (SEQ ID NO: 11), probe: TGCTGCTGGACCCTTCCTAAACCT (SEQ ID NO: 12); Human RPL19 forward: CGC AAG CGC CGT GAA (SEQ ID NO: 28), reverse: GGTCTCTTCCTCCTTGGATAAAGTC (SEQ ID NO: 29), probe: CCAGGCCAAGAAGGAGGAGATCATCA (SEQ ID NO: 30). Human specific VEGF forward: AAT GAC GAG GGC CTG GAG T (SEQ ID NO: 31), reverse: TTGATCCGCATAATCTGCATG (SEQ ID NO: 32), probe: TGTGCCCACTGAGGAGTCCAACATCA (SEQ ID NO: 33).\n(§1) Recombinant human MCP-1, MIP-1α, MIP-1β, MIP-2, bFGF, VEGF, GM-CSF, G-CSF, SDF-1α, M-CSF, Erythropoietin (EPO) and TNFα were purchased from R&D Systems (Minneapolis, Minn.). Recombinant human IL-8, IFNγ, Bv8 (Prokineticin-2), IL-4, IL-10, IL-13, TGF-β were from PeproTech Inc. (Rocky Hill, N.J.). SCF (Stem Cell factor) was from Invitrogen Biosource (Carlsbad, Calif.). In some cases, G-CSF from Amgen (Neupogen/Filgrastim) was used. All cytokines were used at 10 ng/ml. Freshly purified cells were washed and re-suspended in HBSS media containing 0.2% BSA (low endotoxin, Serologicals Corp. Norcross, Ga.). Two million cells were incubated in 24-well plates with various cytokines and chemokines for 4 hr at 37° C. in a 5% CO2 incubator. Cells were then transferred into eppendorf tubes, centrifuged and lysed with RNA lysis buffer (Qiagen, Valencia, Calif.). Bv8 expression was assessed by Taqman with RPL19 (Ribosomal Protein L19) as the internal control gene."}, "[3]": {"test_system": "PKR2/EG-VEGFR2 expression", "test": "Regulation of PKR2/EG-VEGFR2 expression in human bone marrow cells and neutrophils", "assay_type": "cell-based", "text": "Taqman reagents for human PKR1/EG-VEGFR1 and PKR2/EG-VEGFR2 were obtained from Applied Biosystems.\nas §1"}, "[4]": {"test_system": "human neutrophils", "test": "Chemotaxis of peripheral blood neutrophils", "assay_type": "cell-based", "description": "10^6 cells were washed with HBSS containing 0.2% BSA before putting into transwell insert with 5 μm pore size (Corning Incorporated, Lowell, Mass.). In the lower chamber, media alone or media with various cytokines at various concentrations (maximum at 200 ng/ml) was added. After 3 hr at 37° C., cells in the lower chamber were transferred, mixed with 9 ml ZPAK solution and counted on Z2 Coulter Particle Count and Size Analyzer (Beckman Coulter, Fullerton, Calif.)."}, "[5]": {"test_system": "Bv8 expression", "test": "Bv8 expression in human leukemia cell lines", "assay_type": "cell-based", "description": "U937, HL-60, THP-1, Hel 92.1.7, KG-1, K562, Jurkat cells were obtained from the ATCC® (Manassas, Va.). Most cells were grown in 10% FBS-containing RPMI. KG-1 cells were grown in 20% FBS-containing Iscove's modified Dulbecco's medium. For THP-1 cells, 10% FBS-containing RPMI was used with Sodium Pyruvate, HEPES and β-mercaptoethanol. For regulation studies, 1 million cells with viability higher than 95% were used. Regulation studies were performed under both normoxia and hypoxia conditions for 4 hr in 1 ml HBSS media containing 0.2% BSA."}, "[6]": {"test_system": "Bv8 expression", "conditions": "previously reported; cited from earlier work"}},
  "data": [
    {"molecule": "B1", "values": [
      {"measurement": "mobilization of CD11b+Gr1+ to the peripheral blood", "setting": "[1]", "result": "significant mobilization"},
      {"measurement": "Bv8 expression in monocytes and lymphocytes", "setting": "[2]; 10 ng/ml, 4 hr", "result": "did not show any change"},
      {"measurement": "induction of Bv8 expression in human neutrophils and whole bone marrow cells", "setting": "[2]; 10 ng/ml, 4 hr", "result": 7, "unit": "fold"},
      {"measurement": "range of induction of Bv8 expression", "setting": "[2]; 10 ng/ml, 4 hr", "result": "6-12 fold"},
      {"measurement": "duration of Bv8 mRNA induction", "setting": "[2]; data not shown", "result": "up to 24 hr"},
      {"measurement": "regulation of PKR2/EG-VEGFR2 in human bone marrow", "setting": "[3]", "result": "regulate PKR2/EG-VEGFR2 to a significant level"},
      {"measurement": "concentration required to stimulate neutrophil migration", "setting": "[4]", "result": 20, "unit": "nM"},
      {"measurement": "Bv8 expression in HL-60", "setting": "[5]", "result": "Neither G-CSF nor GM-CSF affected Bv8 expression"},
      {"measurement": "increase in Bv8 expression in several leukemia cell lines", "setting": "[5]; 10 ng/ml, 4 hr", "result": "2-3 fold"},
      {"measurement": "up-regulation of Bv8 expression in mouse bone marrow cells and peripheral neutrophils", "setting": "[6]", "result": "> 30", "unit": "fold"}
    ]}
  ]
}
